Measurements published in patent publication US20160333110A1 (CHIOME BIOSCIENCE, published 2016).
Blank lines part the entries; values can stand above or below the binder they belong to.

Assays:
[1] = molecular target: T1, human TROP-2 (hTROP-2) endogenously expressed on the cell surface of human cancer cell lines (human, UniProt P09758 27-323); assay: FACS on PK-59 cells, 0.1 µg antibody
T1 construct: also called TACSTD2; PK-59 cells
T1 sequence: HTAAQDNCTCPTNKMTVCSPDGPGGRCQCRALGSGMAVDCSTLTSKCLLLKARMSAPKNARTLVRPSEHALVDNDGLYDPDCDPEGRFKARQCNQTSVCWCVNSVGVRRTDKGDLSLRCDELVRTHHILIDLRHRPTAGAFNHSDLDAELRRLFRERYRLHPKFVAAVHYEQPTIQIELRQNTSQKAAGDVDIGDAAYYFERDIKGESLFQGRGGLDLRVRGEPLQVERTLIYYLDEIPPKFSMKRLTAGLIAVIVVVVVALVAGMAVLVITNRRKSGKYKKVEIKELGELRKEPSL
Protocol: (§1) Cancer cells were removed from a culture dish by a trypsin treatment, and a cell suspension was then prepared (cell density: 2×10⁶ cells/mL). An anti-hTROP-2 monoclonal antibody (0.1 μg) was added to 100 μL of the cell suspension, and they were then reacted at 4° C. for 20 minutes. The reaction solution was washed with PBS, and it was then reacted with PE-labeled anti-mouse IgG (BD Biosciences Pharmingen) (0.1 μg) (at 4° C. for 30 minutes). Thereafter, the resultant was analyzed by FACSCalibur (Becton, Dickinson and Company).
(§2) Subsequently, the reactivity of the generated anti-hTROP-2 monoclonal antibodies with human cancer cell lines (in which an hTROP-2 protein was endogenously expressed on the cell surface) was examined by FACS analysis.

[2] = molecular target: T2, mouse TROP-2 protein transiently expressed in CHO-K1 cells (mouse, UniProt Q8BGV3 25-317); assay: FACS on CHO-K1 cells transiently expressing mouse TROP-2
T2 construct: whole, on cells
T2 sequence (looked up): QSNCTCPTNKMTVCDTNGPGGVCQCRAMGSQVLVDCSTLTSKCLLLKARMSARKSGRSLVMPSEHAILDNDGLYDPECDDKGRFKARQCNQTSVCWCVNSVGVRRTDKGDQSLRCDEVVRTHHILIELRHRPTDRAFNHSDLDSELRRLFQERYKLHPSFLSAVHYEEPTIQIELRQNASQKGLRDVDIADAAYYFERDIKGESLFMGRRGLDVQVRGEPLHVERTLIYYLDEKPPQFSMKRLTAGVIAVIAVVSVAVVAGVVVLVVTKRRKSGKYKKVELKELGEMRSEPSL
Text: Specifically, each of an expression vector (mouse TROP-2-pcDNA3.1(+), furnished by the Institute of Molecular and Cellular Biosciences, the University of Tokyo) comprising the full-length cDNA of a mouse TROP-2 gene (GenBank accession No. NM_020047, Y08830), and an expression vector (pcDNA3.1-hEpCAM-myc/His) comprising the full-length cDNA of a human TROP-1/EpCAM gene (GenBank accession No. NM_002354), was transiently introduced into CHO-K1 cells, using Lipofectamine2000 reagent (Invitrogen). Thereafter, 24 to 48 hours later, the cells were removed from a culture dish by treating them with trypsin, and a cell suspension was then prepared. The thus prepared cell suspension was successively reacted with the produced anti-hTROP-2 monoclonal antibody (0.1 μg) and with PE-labeled anti-mouse IgG, and it was then analyzed by FACSCalibur.

[3] = molecular target: T3, recombinant hTACSTD2-Fc-His protein (Creative BioMart) (human, UniProt P09758 27-274, limits assumed); assay: low-density antigen-coated ELISA, plate coated with 0.1 µg/mL hTACSTD2-Fc-His
T3 construct: bought protein; also called hTROP-2 (low-density antigen-coated ELISA); not shown: Fc part of the bought fusion protein; not described; His tag
T3 sequence: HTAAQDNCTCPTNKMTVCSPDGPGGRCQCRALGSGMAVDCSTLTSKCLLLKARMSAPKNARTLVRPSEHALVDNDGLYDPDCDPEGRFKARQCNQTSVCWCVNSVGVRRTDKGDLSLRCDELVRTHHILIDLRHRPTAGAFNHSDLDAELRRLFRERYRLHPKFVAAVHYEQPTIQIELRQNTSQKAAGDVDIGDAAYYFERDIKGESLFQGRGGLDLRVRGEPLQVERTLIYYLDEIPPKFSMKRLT
Protocol: Furthermore, antigen affinity was also examined by an ELISA method. ELISA was carried out using an ELISA plate which was coated with the recombinant protein of the hTROP-2 extracellular region as described in Example 3. […] Thereafter, the resultant was washed with a washing buffer (PBS containing 0.05% Tween 20), and a blocking buffer (PBS containing 2% skim milk and 0.05% Tween 20) was then added thereto (200 μl/well) to block it (at room temperature for 1 hour). The resultant was washed with a washing buffer. […] The obtained dilution samples were each added in an amount of 50 μl/well to the above-described ELISA plate (at room temperature for 2 hours). […] After the mixture had been washed with a washing buffer, a TMB (3,3′,5,5′-tetramethylbenzidine: SIGMA) substrate solution was added (50 μl/well) to the resultant to carry out a color reaction. Then, 1 M sulfuric acid (25 μl/well) was added to the reaction product to terminate the reaction. Using Microplate reader Model 550 (BioRad), an absorbance at 450 nm was measured with an absorbance at 655 nm used as a reference.

[4] = molecular target: T1, human TROP-2 (hTROP-2) endogenously …; assay: FACS on BxPC-3 cells, 0.1 µg antibody
Protocol: as §1, §2

- mean fluorescence intensity, times that with PE-labeled anti-mouse IgG alone [1]: 44 times
- binding result [2]: no binding (tested: 0.1 µg antibody)
- EC50 [3]: 0.012 µg/mL
- mean fluorescence intensity, times that with PE-labeled anti-mouse IgG alone [4]: 45 times
B1: anti-hTROP-2 monoclonal antibody clone K5-70 (antibody, mouse IgG2a, V domains shown)
VH: QVQLQQPGAELVRPGASVKLSCKASGYTFTIYWINWVKQRPGQGLEWIGNIYPSDSYTNYNQKFKDKATLTVDKSSSTAYMQLSSPTSEDSAVYYCTRTSMADYWGQGTTLTVSS
VL: DILLTQSPAILSVSPGERVSFSCRASQSIGTSIHWYQQRTNGSPRLLIKYASESISGIPSRFSGSGSGTDFTLSINSVESEDIADYYCQQSNSWPFTFGSGTKLEIK
notes: mouse IgG2a, hybridoma FERM BP-11251; also called K5-70 antibody; mouse K5-70 antibody

- mean fluorescence intensity, times that with PE-labeled anti-mouse IgG alone [1]: 59 times
- binding result [2]: no binding (tested: 0.1 µg antibody)
- EC50 [3]: 0.041 µg/mL
- mean fluorescence intensity, times that with PE-labeled anti-mouse IgG alone [4]: 25 times
B2: anti-hTROP-2 monoclonal antibody clone T6-16 (antibody, mouse IgG2a, V domains shown)
VH: EVQLQQSGPELVKPGASVKISCKASGYTFTDYNMHWVKQSHGKNLEWIGYIYPYNGGTGYNQRFKSRATMTVDKSSSTAYMELRSLTSDDSAVYYCAREDYGSSPSYAMDYWGQGTSVIVSS
VL: DVVMTQTPLSLPVSLGDQASISCRSSQSLVHGNGNTYLHWYLQKPGQSPKLLIYKVSNRFSGVPDRFSGSGSGTDFTLKISRVEAEDLGVYFCSQTTHVPTFGSGTKLEIK
notes: mouse IgG2a, hybridoma FERM BP-11346; also called T6-16 antibody
